# Laboratory results from patent US20150010572A1 (SAMSUNG ELECTRONICS, published 2015).
# T1: Ang-2 (R&D systems; 623-AN-025/CF) (human, UniProt O15123 19-496)
# T1 sequence: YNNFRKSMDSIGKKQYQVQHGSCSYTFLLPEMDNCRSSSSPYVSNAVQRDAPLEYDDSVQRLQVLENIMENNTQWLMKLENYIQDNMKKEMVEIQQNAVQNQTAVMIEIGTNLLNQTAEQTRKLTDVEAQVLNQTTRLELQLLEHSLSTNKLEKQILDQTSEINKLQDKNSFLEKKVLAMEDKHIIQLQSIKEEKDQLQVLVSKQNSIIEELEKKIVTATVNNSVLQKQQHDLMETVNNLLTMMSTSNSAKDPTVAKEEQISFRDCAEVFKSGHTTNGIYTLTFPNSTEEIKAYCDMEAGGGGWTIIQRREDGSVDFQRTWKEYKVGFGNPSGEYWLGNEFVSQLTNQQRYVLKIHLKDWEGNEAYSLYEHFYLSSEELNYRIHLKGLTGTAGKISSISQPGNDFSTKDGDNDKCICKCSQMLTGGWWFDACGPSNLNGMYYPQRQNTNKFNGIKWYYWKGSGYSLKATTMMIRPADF
# B1: FLAG-tagged hAng-2 (ligand)
# chain: DYKDDDDKYNNFRKSMDSIGKKQYQVQHGSCSYTFLLPEMDNCRSSSSPYVSNAVQRDAPLEYDDSVQRLQVLENIMENNTQWLMKLENYIQDNMKKEMVEIQQNAVQNQTAVMIEIGTNLLNQTAEQTRKLTDVEAQVLNQTTRLELQLLEHSLSTNKLEKQILDQTSEINKLQDKNSFLEKKVLAMEDKHIIQLQSIKEEKDQLQVLVSKQNSIIEELEKKIVTATVNNSVLQKQQHDLMETVNNLLTMMSTSNSAKDPTVAKEEQISFRDCAEVFKSGHTTNGIYTLTFPNSTEEIKAYCDMEAGGGGWTIIQRREDGSVDFQRTWKEYKVGFGNPSGEYWLGNEFVSQLTNQQRYVLKIHLKDWEGNEAYSLYEHFYLSSEELNYRIHLKGLTGTAGKISSISQPGNDFSTKDGDNDKCICKCSQMLTGGWWFDACGPSNLNGMYYPQRQNTNKFNGIKWYYWKGSGYSLKATTMMIRPADF
# notes: also called FLAG-Ang-2
# B2: SAIT-Ang-2-AB-m7F8 (antibody, V domains shown)
# VH: DVQLQESGPGLVKPSQSLSLTCTVTGYSITSDYAWNWIRQFPGNKLEWMGYISYSGSTSYNPSLKSRISITRDTSKNQFFLQLNSVTPEDTATYYCARSTFGHYVSSMDYWGQGTSVTVSS
# VL: SIVMTQTPKLLLVSAGDRVTITCKASQSASNDVAWYQQKPGQSPKLLIYYASNRYTGVPDRFTGSGYGTDFTFAISTVQAEDLAIYFCQQDYSSPPTFGGGTKLEIK
# Assays:
# [1] = molecular target: T2, integrin alphaVbeta1 (R&D systems) (human, UniProt P06756 31-992; P05556 21-728); test: ELISA, integrin coated at 5 ug/ml, FLAG-Ang-2 10 ug/ml, anti-FLAG-HRP
# T2 construct: Bought heterodimer coated on an ELISA plate; also called αVβ1
# Experimental: (§1) An ELISA plate was coated with diluting solutions of three kinds of integrin (integrin; alpha5beta1 (α5β1; α5: NCBI Accession No. P08648, β1: NCBI Accession No. P05556), alphaVbeta1 (αVβ1; αV: NCBI Accession No. P06756, β1: NCBI Accession No. P05556), and alphaVbeta3 (αVβ3; αV: NCBI Accession No. P06756, β3: NCBI Accession No. P05106); R&D systems) proteins diluted in PBS at a concentration of 5 μg/ml (18 hours, 4° C.) and then blocked with 1% (v/v) BSA at a room temperature for 1 hour. Thereafter, the plate was treated with Ang-2 protein (FLAG-Ang-2, 0.1 ml of Ang-2 protein solution diluted in PBS at a concentration of 10 μg/ml) tagged with a FLAG sequence ([…], Sigma) at N-terminal, incubated at a room temperature for 2 hours, and washed five times with 0.05% PBST (0.05% (v/v) Tween-20-containing phosphate buffer saline). After that, an anti-FLAG antibody (Sigma) conjugated with horseradish peroxidase (HRP) was added to react, and the plate was washed again five times with PBST. Bindings between Ang-2 and the three kinds of integrins were identified indirectly by measuring the amounts of the anti-FLAG antibody remaining in the ELISA plate via color development reaction using TMB (3,3,5,5-tetramethylbenzidine) as a substrate of HRP. As a negative control, those that were blocked only (treated with BSA only) without Ang-2 protein treatment were used.
# [2] = molecular target: T3, integrin alpha5beta1 (R&D systems) (human, UniProt P08648 42-995; P05556 21-728); test: as above
# T3 construct: Bought heterodimer coated on an ELISA plate; also called α5β1
# Experimental: as §1
# [3] = molecular target: T4, integrin alphaVbeta3 (R&D systems) (human, UniProt P06756 31-992; P05106 27-718); test: as above
# T4 construct: Bought heterodimer coated on an ELISA plate; also called αVβ3; purified alphaVbeta3 protein
# Experimental: as §1
# [4] = molecular target: T1, Ang-2 (R&D systems; 623-AN-025/CF); test: cell-based or functional assay
# [5] = molecular target: mutant Ang-2 protein, A449 substituted with alanine (FLAG-tagged at N-terminal) (human) (UniProt O15123); test: ELISA, antibody coated, 250 ng FLAG-tagged mutant Ang-2, anti-FLAG-HRP, OD450 relative to native Ang-2
# T2 sequence (P06756 31-992 limits assumed, chain 1 of 2): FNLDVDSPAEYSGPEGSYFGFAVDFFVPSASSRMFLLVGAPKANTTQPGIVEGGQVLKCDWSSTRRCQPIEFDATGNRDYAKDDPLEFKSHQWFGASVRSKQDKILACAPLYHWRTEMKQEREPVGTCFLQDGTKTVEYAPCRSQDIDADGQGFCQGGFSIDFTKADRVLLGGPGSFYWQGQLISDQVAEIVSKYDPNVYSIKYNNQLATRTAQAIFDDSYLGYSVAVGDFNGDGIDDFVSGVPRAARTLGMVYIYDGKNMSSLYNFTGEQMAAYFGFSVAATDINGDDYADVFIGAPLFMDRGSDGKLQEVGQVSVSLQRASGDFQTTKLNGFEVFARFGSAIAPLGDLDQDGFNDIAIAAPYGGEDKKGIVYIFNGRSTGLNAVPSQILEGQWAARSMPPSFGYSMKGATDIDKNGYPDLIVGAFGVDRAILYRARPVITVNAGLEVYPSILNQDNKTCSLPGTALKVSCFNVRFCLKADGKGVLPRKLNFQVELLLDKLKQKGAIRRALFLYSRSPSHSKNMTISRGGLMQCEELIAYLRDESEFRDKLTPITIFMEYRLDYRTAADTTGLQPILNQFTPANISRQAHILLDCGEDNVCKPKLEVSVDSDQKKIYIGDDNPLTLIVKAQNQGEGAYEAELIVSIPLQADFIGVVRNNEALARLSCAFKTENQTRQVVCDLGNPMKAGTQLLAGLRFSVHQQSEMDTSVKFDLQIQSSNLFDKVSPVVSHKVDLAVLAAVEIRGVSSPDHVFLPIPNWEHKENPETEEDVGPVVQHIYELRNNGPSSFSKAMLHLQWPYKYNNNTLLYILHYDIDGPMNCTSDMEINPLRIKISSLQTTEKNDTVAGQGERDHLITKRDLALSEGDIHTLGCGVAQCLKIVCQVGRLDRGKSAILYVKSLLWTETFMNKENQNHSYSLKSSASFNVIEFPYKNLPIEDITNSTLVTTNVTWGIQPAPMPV
# T2 sequence (P05556 21-728 limits assumed, chain 2 of 2): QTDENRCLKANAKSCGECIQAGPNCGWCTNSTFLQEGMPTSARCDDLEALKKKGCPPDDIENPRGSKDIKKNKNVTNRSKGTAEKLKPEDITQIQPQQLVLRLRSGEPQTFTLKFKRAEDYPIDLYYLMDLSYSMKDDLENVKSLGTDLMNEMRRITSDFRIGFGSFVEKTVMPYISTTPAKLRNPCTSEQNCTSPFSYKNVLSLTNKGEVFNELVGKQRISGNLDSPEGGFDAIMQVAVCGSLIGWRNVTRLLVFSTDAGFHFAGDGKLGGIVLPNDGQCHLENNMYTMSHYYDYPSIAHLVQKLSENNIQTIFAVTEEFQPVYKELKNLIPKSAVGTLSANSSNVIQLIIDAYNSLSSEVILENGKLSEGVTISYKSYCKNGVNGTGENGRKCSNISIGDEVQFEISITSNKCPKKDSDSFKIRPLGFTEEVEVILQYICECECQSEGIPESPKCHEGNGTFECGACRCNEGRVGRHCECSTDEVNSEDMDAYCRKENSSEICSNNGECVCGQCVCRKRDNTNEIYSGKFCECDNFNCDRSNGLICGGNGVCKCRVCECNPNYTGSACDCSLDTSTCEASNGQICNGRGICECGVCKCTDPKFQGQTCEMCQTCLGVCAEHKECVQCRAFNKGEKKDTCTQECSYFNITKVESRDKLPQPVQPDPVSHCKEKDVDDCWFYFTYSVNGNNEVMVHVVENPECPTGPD
# T4 sequence (P06756 31-992 limits assumed, chain 1 of 2): as the sequence (P06756 31-992 limits assumed, chain 1 of 2) above
# T4 sequence (P05106 27-718 limits assumed, chain 2 of 2): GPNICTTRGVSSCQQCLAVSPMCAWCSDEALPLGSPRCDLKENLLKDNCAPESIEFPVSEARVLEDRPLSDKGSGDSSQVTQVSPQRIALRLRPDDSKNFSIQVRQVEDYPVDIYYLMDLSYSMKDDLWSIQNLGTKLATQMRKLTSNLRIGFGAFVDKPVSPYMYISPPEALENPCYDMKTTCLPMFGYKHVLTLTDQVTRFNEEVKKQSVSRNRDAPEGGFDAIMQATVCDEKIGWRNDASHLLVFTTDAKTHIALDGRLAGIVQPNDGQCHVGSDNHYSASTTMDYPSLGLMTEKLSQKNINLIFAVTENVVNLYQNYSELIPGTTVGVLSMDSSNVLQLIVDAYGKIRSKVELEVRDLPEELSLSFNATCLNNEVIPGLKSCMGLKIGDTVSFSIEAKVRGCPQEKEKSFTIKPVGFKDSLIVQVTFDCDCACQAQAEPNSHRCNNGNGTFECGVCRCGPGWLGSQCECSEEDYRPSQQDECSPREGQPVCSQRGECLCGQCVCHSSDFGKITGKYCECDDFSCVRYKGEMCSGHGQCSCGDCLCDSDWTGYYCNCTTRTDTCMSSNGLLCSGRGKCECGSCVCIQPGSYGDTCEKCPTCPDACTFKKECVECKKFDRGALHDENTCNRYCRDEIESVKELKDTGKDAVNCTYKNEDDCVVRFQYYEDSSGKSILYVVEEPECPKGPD
# T3 sequence (P08648 42-995 limits assumed, chain 1 of 2): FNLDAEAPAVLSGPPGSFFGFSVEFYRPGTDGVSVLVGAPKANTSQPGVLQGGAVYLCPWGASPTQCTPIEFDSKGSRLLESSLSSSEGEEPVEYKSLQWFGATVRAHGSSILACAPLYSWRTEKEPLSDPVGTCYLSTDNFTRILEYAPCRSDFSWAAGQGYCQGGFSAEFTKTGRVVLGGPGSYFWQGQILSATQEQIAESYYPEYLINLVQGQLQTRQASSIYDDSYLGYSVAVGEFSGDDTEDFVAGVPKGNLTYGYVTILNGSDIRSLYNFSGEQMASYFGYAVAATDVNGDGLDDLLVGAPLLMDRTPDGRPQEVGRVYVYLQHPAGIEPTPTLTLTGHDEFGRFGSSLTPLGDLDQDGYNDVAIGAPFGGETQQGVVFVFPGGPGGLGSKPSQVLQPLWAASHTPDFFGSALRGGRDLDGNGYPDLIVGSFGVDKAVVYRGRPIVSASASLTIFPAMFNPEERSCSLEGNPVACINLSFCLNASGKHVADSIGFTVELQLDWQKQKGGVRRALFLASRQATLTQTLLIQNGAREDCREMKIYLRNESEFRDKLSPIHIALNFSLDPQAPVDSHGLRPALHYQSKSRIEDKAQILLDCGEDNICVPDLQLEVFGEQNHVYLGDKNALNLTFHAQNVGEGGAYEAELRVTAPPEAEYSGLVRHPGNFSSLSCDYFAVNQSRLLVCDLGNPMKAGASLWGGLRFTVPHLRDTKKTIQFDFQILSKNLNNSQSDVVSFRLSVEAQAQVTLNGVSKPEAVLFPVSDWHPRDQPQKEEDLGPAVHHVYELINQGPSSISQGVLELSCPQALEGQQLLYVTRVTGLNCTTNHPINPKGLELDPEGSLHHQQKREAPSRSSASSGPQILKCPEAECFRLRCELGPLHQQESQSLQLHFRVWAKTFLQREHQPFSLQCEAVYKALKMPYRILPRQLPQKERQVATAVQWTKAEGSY
# T3 sequence (P05556 21-728 limits assumed, chain 2 of 2): as the sequence (P05556 21-728 limits assumed, chain 2 of 2) above
Binder,binding result [1],binding result [2],binding result [3],Ang-2-depedent Cell Adhesion Degree (%) [4] [%],% at RBD binding (mutant Ang-2 against native Ang-2) [5] [%]
B1,binds,binds,binds,–,–
B2,–,–,–,35.1,94.1
